# Laboratory results taken from PMC12686569, “FaMYB63 and FvWYRKY75 Activate FvPR10.14 Boosting Strawberry Immunity Against Powdery Mildew”.
# B1: FvPR10.14-P (FvWRKY75 probe) (dsDNA)
# DNA 1: ATATATGGGATAGCCAATGTTGACTGCTCGACATTACGTGTATA
# DNA 2: TATACACGTAATGTCGAGCAGTCAACATTGGCTATCCCATATAT
# Target: FvWRKY75 (Fragaria vesca, UniProt A0A1S5SLB0 1-190)
# Assay: EMSA; EMSA Kit (Beyotime), according to Wang, Shi, et al. 2022; buffer, salt, pH and temperature not stated
# Details: protein: recombinant; tags: His (as stated); blunt
# FvWRKY75, sequence (A0A1S5SLB0 entry or part of it): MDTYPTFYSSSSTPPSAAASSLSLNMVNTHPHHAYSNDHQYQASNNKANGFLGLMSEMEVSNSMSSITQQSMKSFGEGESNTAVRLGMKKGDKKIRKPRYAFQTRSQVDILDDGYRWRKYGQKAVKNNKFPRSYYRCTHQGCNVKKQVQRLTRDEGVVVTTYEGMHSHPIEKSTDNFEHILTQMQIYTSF
binder,measurement,value
B1,binding result,binds
